Assay results reported in the Immune Epitope Database (IEDB).

Tests used:
HLA-A*02:02 = experiment: IEDB peptide-MHC binding, purified MHC/competitive/radioactivity; filed as Kd, often an IC50 or EC50 that approximates it; ≥ and ≤ were set here for values at or beyond the usual limits of such assays
HLA-A*02:03 = experiment: as above
HLA-A*02:06 = experiment: as above
HLA-A*02:01 [1] = experiment: IEDB peptide-MHC binding, purified MHC/direct/fluorescence; filed as Kd, often an IC50 or EC50 that approximates it; ≥ and ≤ were set here for values at or beyond the usual limits of such assays
HLA-A*69:01 = experiment: as above
HLA-A*01:01 = experiment: as above
HLA-A*30:01 = experiment: IEDB peptide-MHC binding, purified MHC/competitive/radioactivity; filed as Kd, often an IC50 or EC50 that approximates it; ≥ and ≤ were set here for values at or beyond the usual limits of such assays
HLA-A*02:01 [2] = experiment: IEDB peptide-MHC binding, purified MHC/competitive/fluorescence; filed as Kd, often an IC50 or EC50 that approximates it; ≥ and ≤ were set here for values at or beyond the usual limits of such assays
HLA-A*03:01 [3] = experiment: IEDB peptide-MHC binding, purified MHC/competitive/radioactivity; filed as Kd, often an IC50 or EC50 that approximates it; ≥ and ≤ were set here for values at or beyond the usual limits of such assays
HLA-A*11:01 [4] = experiment: as above; conditions: source organism: Vaccinia virus WR
HLA-A*31:01 = experiment: as above; conditions: source organism: Vaccinia virus WR
HLA-A*33:01 = experiment: as above; conditions: source organism: Vaccinia virus WR
HLA-A*68:01 = experiment: as above; conditions: source organism: Vaccinia virus WR
HLA-A*24:02 = experiment: as above
HLA-B*40:01 = experiment: IEDB peptide-MHC binding, purified MHC/direct/fluorescence; filed as Kd, often an IC50 or EC50 that approximates it; ≥ and ≤ were set here for values at or beyond the usual limits of such assays
HLA-A*02:01 [5] = experiment: IEDB peptide-MHC binding, purified MHC/competitive/fluorescence; ≥ and ≤ were set here for values at or beyond the usual limits of such assays
HLA-B*15:01 = experiment: IEDB peptide-MHC binding, purified MHC/direct/fluorescence; filed as Kd, often an IC50 or EC50 that approximates it; ≥ and ≤ were set here for values at or beyond the usual limits of such assays
HLA-A*30:02 = experiment: IEDB peptide-MHC binding, purified MHC/competitive/radioactivity; filed as Kd, often an IC50 or EC50 that approximates it; ≥ and ≤ were set here for values at or beyond the usual limits of such assays; conditions: source organism: Dengue virus 4 Philippines/H241/1956
HLA-A*03:01 [6] = experiment: IEDB peptide-MHC binding, purified MHC/direct/fluorescence; filed as Kd, often an IC50 or EC50 that approximates it; ≥ and ≤ were set here for values at or beyond the usual limits of such assays; conditions: source organism: SARS-CoV1
HLA-A*11:01 [7] = experiment: as above; conditions: source organism: SARS-CoV1
HLA-B*07:02 = experiment: as above; conditions: source organism: SARS-CoV1
[8] = source organism: Vaccinia virus WR
[9] = source organism: Entamoeba histolytica HM-1:IMSS
[10] = source organism: Dengue virus 1 Brazil/97-11/1997
[11] = source organism: SARS coronavirus Tor2
[12] = source organism: Mammarenavirus whitewaterense
[13] = source organism: Mammarenavirus guanaritoense
[14] = source organism: Encephalitozoon cuniculi

In the case of NIFMTLVPV, the Kd (HLA-A*02:02; [8]) is reported as 86.2 nM, the Kd (HLA-A*02:03; [8]) is reported as 6.38 nM and the Kd (HLA-A*02:06; [8]) is reported as 227 nM.
NVGRILGYV was tested, and the Kd (HLA-A*02:01 [1]; [9]) was 146 nM and the Kd (HLA-A*69:01; [9]) was 3.7 nM.
For NVMAADPPK, the Kd (HLA-A*01:01; source organism: Yersinia pestis) was ≥ 20000 nM.
Work on QLVFNSISA yielded a Kd (HLA-A*02:02; [8]) of 4800 nM, a Kd (HLA-A*02:03; [8]) of 1560 nM and a Kd (HLA-A*02:06; [8]) of 3780 nM.
With QMDGAILVV the Kd (HLA-A*69:01; source organism: Brucella abortus 2308) was 3440 nM.
In the case of RALKAYFTA, the Kd (HLA-A*02:02; [8]) is reported as 2350 nM, the Kd (HLA-A*02:03; [8]) is reported as 204 nM and the Kd (HLA-A*02:06; [8]) is reported as 13.7 nM. It also gave a Kd (HLA-A*30:01; [8]) of 66.1 nM.
RARNRVSTG showed a Kd (HLA-A*30:01; [10]) of 180 nM.
Sequence RIYCSLFKNV has a Kd (HLA-A*02:02; [8]) of 913 nM, a Kd (HLA-A*02:03; [8]) of 29.6 nM and a Kd (HLA-A*02:06; [8]) of 7.1 nM.
In the case of RLKRMAISG, the Kd (HLA-A*30:01; [10]) is reported as 138 nM.
RMPEAAPPV was tested, and the Kd (HLA-A*02:01 [2]; source organism: Tupaia belangeri) was 0.5 nM.
RTKLMSNIK gave a Kd (HLA-A*03:01 [3]; [8]) of 23.6 nM, a Kd (HLA-A*11:01 [4]) of 29.4 nM and a Kd (HLA-A*30:01; [8]) of 0.38 nM. The Kd (HLA-A*31:01) was 4.49 nM, the Kd (HLA-A*33:01) was ≥ 56800 nM and the Kd (HLA-A*68:01) was 778 nM.
In the case of RTRPRWIPA, the Kd (HLA-A*01:01; source organism: Mycobacterium tuberculosis) is reported as ≥ 20000 nM.
With RWFVERNMVT the Kd (HLA-A*24:02; source organism: Dengue virus 2 Jamaica/1409/1983) was 855 nM.
In the case of SEILPFTVL, the Kd (HLA-B*40:01; source organism: Mycobacterium tuberculosis variant bovis) is reported as 14.7 nM.
With SLEATFIDV the Kd (HLA-A*02:02; [8]) was 34.9 nM, the Kd (HLA-A*02:03; [8]) was 80.4 nM and the Kd (HLA-A*02:06; [8]) was 10.3 nM.
Work on SLLRNDVPMA yielded a Kd (HLA-A*30:01; source organism: Dengue virus 3 Martinique/1243/1999) of 2480 nM.
Work on SLVKPTVYV yielded a Kd (HLA-A*02:02; [11]) of 108 nM, a Kd (HLA-A*02:03; [11]) of 37.2 nM and a Kd (HLA-A*02:06; [11]) of 473 nM.
SLYNLVKSSV showed a Kd (HLA-A*02:01 [2]; source organism: Variola virus) of 3.2 nM.
SMYVIPDEL gave a Kd (HLA-A*02:02; [8]) of 5.02 nM, a Kd (HLA-A*02:03; [8]) of 13.4 nM and a Kd (HLA-A*02:06; [8]) of 2820 nM.
Work on SQDTTIPDV yielded an IC50 (HLA-A*02:01 [5]; source organism: Zaire ebolavirus) of 5340 nM.
In the case of SQKTTWLPV, the Kd (HLA-A*02:06; [10]) is reported as 175 nM and the Kd (HLA-A*30:01; [10]) is reported as 15.1 nM.
In the case of STQQNKLVI, the Kd (HLA-A*02:02; [8]) is reported as ≥ 53000 nM, the Kd (HLA-A*02:03; [8]) is reported as 14400 nM and the Kd (HLA-A*02:06; [8]) is reported as ≥ 77100 nM.
With SWKLEKASF the Kd (HLA-A*24:02; source organism: Dengue virus 3 Singapore/8120/1995) was 153 nM.
In the case of TIILNKIVQL, the Kd (HLA-A*02:02; [8]) is reported as 1760 nM, the Kd (HLA-A*02:03; [8]) is reported as ≥ 49300 nM and the Kd (HLA-A*02:06; [8]) is reported as 30.4 nM.
Sequence TLIDFYLCFL has a Kd (HLA-A*02:02; [11]) of 0.0405 nM, a Kd (HLA-A*02:03; [11]) of 3.57 nM and a Kd (HLA-A*02:06; [11]) of 3.01 nM.
TLIQYRQQL was tested, and the Kd (HLA-A*02:02; [8]) was 128 nM, the Kd (HLA-A*02:03; [8]) was 410 nM and the Kd (HLA-A*02:06; [8]) was 1880 nM.
For TLLMNELGV, the Kd (HLA-A*02:01 [2]; source organism: Influenza A virus (A/nt/60/1968(H3N2))) was 0.7 nM.
TLNASQYAN was tested, and the IC50 (HLA-A*02:01 [5]; source organism: Vaccinia virus Copenhagen) was ≥ 143000 nM.
In the case of TQFESLKIY, the Kd (HLA-B*15:01; source organism: Influenza A virus (A/Chicken/Nanchang/2-220/2001(H3N6))) is reported as 211 nM.
Work on TTRHRKPTY yielded a Kd (HLA-A*30:01; source organism: Dengue virus 4 Philippines/H241/1956) of 1180 nM and a Kd (HLA-A*30:02) of 658 nM.
With TVEFDRDKVV the Kd (HLA-A*02:02; [8]) was 16200 nM, the Kd (HLA-A*02:03; [8]) was 1600 nM and the Kd (HLA-A*02:06; [8]) was ≥ 30800 nM.
For VAEHRFENM, the Kd (HLA-A*02:02; [8]) was 7130 nM, the Kd (HLA-A*02:03; [8]) was 7160 nM and the Kd (HLA-A*02:06; [8]) was ≥ 47900 nM.
VCFWSTLFYV showed a Kd (HLA-A*02:02; [12]) of 348 nM, a Kd (HLA-A*02:03; [12]) of 7010 nM and a Kd (HLA-A*02:06; [12]) of 1130 nM.
VMRSRWSRK was tested, and the Kd (HLA-A*03:01 [3]; [10]) was 4.86 nM and the Kd (HLA-A*30:01; [10]) was 10.8 nM.
For VQTVRTQVY, the Kd (HLA-A*01:01; source organism: SARS-CoV1) was ≥ 24700 nM, the Kd (HLA-A*03:01 [6]) was 6620 nM and the Kd (HLA-A*11:01 [7]) was ≥ 44700 nM. The Kd (HLA-B*07:02) was 16700 nM, the Kd (HLA-B*15:01; source organism: SARS-CoV1) was 144 nM and the Kd (HLA-B*40:01; source organism: SARS-CoV1) was ≥ 168000 nM.
Sequence YCNYTRFWYI has a Kd (HLA-A*02:02; [13]) of 1050 nM, a Kd (HLA-A*02:03; [13]) of 4340 nM and a Kd (HLA-A*02:06; [13]) of 81.4 nM.
Sequence YLWFKRHVY has a Kd (HLA-A*02:01 [1]; [14]) of 4010 nM and a Kd (HLA-A*69:01; [14]) of 3240 nM.
Work on YVILKDPRI yielded a Kd (HLA-A*02:02; [8]) of 1550 nM, a Kd (HLA-A*02:03; [8]) of 203 nM and a Kd (HLA-A*02:06; [8]) of 11.7 nM.
